Experimental data from patent publication US11021533 (dated 2021).

Biological target: ZIKV E protein ectodomain (UniProt A0A024B7W1 291-745)
Experiment: ELISA

ZIKV E protein ectodomain, sequence (A0A024B7W1 291-745): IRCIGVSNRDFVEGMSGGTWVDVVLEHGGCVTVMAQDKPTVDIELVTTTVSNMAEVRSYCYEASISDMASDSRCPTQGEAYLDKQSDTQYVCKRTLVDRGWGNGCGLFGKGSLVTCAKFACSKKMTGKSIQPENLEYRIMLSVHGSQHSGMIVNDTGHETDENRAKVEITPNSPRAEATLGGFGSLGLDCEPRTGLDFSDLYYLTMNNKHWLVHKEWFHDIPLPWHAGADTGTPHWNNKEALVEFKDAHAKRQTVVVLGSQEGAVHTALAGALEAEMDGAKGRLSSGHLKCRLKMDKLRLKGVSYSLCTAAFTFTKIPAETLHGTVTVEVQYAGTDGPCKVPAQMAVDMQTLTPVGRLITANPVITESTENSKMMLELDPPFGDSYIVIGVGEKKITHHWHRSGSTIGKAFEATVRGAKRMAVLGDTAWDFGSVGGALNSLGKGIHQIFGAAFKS

| Binder | EC50 |
| --- | --- |
| ZIKV-19 (antibody, V domains shown) VH: QVQLVQSGPEVKKPGSSVKVSCKASGVSFNTYEISWVRQAPGQGLEWMGRIIPIFATPTYALKFQGRVTITTDESTTTGYMELSSLRSEDTAVYYCAGRPYGPGSWLPLDVWGQGTLVTVSS VL: DIVMTQSPSSLSASVGDRVTITCRASQGISSYLAWYQQKPGKLPKLLIYAASTLQSGVPSRFSGSGSGTDFTLTISSLQPEDVAAYYCQKYDSAPFTFGPGTKVDLK | 0.165 µg/mL |
| ZIKV-88 (antibody, V domains shown) VH: QVQLLESGGGVVQPGRSLRLSCVASGLTFSTSAMHWVRQAPGKGLEWVAVISYDGSYKFYADSVRDQFTISRDNSKTTLYLQMDGLTPEDTAVYYCARGYNDDSSGSYWYFDLWGRGTLVTVSS VL: QSVLTQPPSVSAAPGQKVTMSCSGSSSNIGSNFVSWYQQLPGTAPKVLIFDNNQRPSGIPDRFSGSKSGTSATLAITGLQPGDEAVYHCGTWDSSLTFAVFGGGTKLTVL | 0.07 µg/mL |
| ZIKV-190 (antibody, V domains shown) VH: EVQLVESGGGLIQPGGSLRLSCAASGFTFSSYAMSWVRQAPGKGLEWVSAISGSGGSTYYADSVKGRFTISRDNSKNTLSLQMNSLRAEDTAVYYCARAFYYDFWTFDYWGQGTLVTVSS VL: QSALTQPRSVSGSPGQSVTISCTGTSSDVGGYNYVSWYQQHPGKAPKLMIYAVTKRPSGVPDRFSGSKSGNTASLTISGLQAEDEADYYCCSYAGSYTYVVFGGGTKLTVL | 0.082 µg/mL |
| ZIKV-195 (antibody, V domains shown) VH: QVQVVESGGGVVQPGRSLRLSCAASGFTFSSSAMHWVRQAPGKGLEWVAVISYDGSNKYYGDSVKGRFTISRDNSKNTLYLQMHSLRAEDTAVYYCAKDRDAYNTVGYFAYYYGMDVWGQGTLVTVSS VL: QSVLTQPPSVSEAPRQRVTISCSGSSSNIGNNAVNWYQQLPGKAPKLLIYYDDLLPSGVSDRFSGSKSGTSASLAISGLQSEDEADYYCAAWDDSLTRYVFGTGTKVTVL | 0.695 µg/mL |
| ZIKV-204 (antibody, V domains shown) VH: QVTLRESGPALLKPTQTLTLTCTFSGFSLSTNETCVSWIRQPPGKALEWLALIDWDDDQYSSTSLAARLTVSKDTSKNQVVLTMTNVAPVDTATYYCALTRPTLTAQNGDKYYNYYYGMDVWGQGTLVTVSS VL: EIVLTQSPGTLSLSPGERATLSCRASQSVSSMYLAWYQQKRGQPPRLLIYGTFNRATGIPDRFSGSGSGTDFTLTISRLEPEDFAVYYCQQYGSSSFTFGGGTKVEIK | 0.048 µg/mL |
